Assay results reported in patent US20240124553A1.

Columns and labels:
Assay in all cases: flow cytometry, transfected 293T cells
[1] = molecular target: CHIKV E2-E1 envelope glycoproteins (strain S27), E2 mutant V32A (chikungunya virus strain S27) (UniProt Q8JUX5)
[2] = molecular target: CHIKV E2-E1 envelope glycoproteins (strain S27), E2 mutant L46A (chikungunya virus strain S27) (UniProt Q8JUX5)
[3] = molecular target: CHIKV E2-E1 envelope glycoproteins (strain S27), E2 mutant Y69A (chikungunya virus strain S27) (UniProt Q8JUX5)
[4] = molecular target: CHIKV E2-E1 envelope glycoproteins (strain S27), E2 mutant L83A (chikungunya virus strain S27) (UniProt Q8JUX5)
[5] = molecular target: CHIKV E2-E1 envelope glycoproteins (strain S27), E2 mutant T96A (chikungunya virus strain S27) (UniProt Q8JUX5)
[6] = molecular target: CHIKV E2-E1 envelope glycoproteins (strain S27), E2 mutant P90A (chikungunya virus strain S27) (UniProt Q8JUX5)
[7] = molecular target: CHIKV E2-E1 envelope glycoproteins (strain S27), E2 mutant D71A (chikungunya virus strain S27) (UniProt Q8JUX5)
[8] = molecular target: CHIKV E2-E1 envelope glycoproteins (strain S27), E2 mutant D77A (chikungunya virus strain S27) (UniProt Q8JUX5)
[9] = molecular target: CHIKV E2-E1 envelope glycoproteins (strain S27), E2 mutant R36A (chikungunya virus strain S27) (UniProt Q8JUX5)
[10] = molecular target: CHIKV E2-E1 envelope glycoproteins (strain S27), E2 mutant H123A (chikungunya virus strain S27) (UniProt Q8JUX5)
[11] = molecular target: CHIKV E2-E1 envelope glycoproteins (strain S27), E2 mutant I101A (chikungunya virus strain S27) (UniProt Q8JUX5)
[12] = molecular target: CHIKV E2-E1 envelope glycoproteins (strain S27), E2 mutant S61A (chikungunya virus strain S27) (UniProt Q8JUX5)
[13] = molecular target: CHIKV E2-E1 envelope glycoproteins (strain S27), E2 mutant T116A (chikungunya virus strain S27) (UniProt Q8JUX5)
[14] = molecular target: CHIKV E2-E1 envelope glycoproteins (strain S27), E2 mutant D132A (chikungunya virus strain S27) (UniProt Q8JUX5)
[15] = molecular target: CHIKV E2-E1 envelope glycoproteins (strain S27), E2 mutant L67A (chikungunya virus strain S27) (UniProt Q8JUX5)
[16] = molecular target: CHIKV E2-E1 envelope glycoproteins (strain S27), E2 mutant S51A (chikungunya virus strain S27) (UniProt Q8JUX5)
[17] = molecular target: CHIKV E2-E1 envelope glycoproteins (strain S27), E2 mutant G114A (chikungunya virus strain S27) (UniProt Q8JUX5)
[18] = molecular target: CHIKV E2-E1 envelope glycoproteins (strain S27), E2 mutant L52A (chikungunya virus strain S27) (UniProt Q8JUX5)
[19] = molecular target: CHIKV E2-E1 envelope glycoproteins (strain S27), E2 mutant A103S (chikungunya virus strain S27) (UniProt Q8JUX5)
[20] = molecular target: CHIKV E2-E1 envelope glycoproteins (strain S27), E2 mutant G98A (chikungunya virus strain S27) (UniProt Q8JUX5)
[21] = molecular target: CHIKV E2-E1 envelope glycoproteins (strain S27), E2 mutant C125A (chikungunya virus strain S27) (UniProt Q8JUX5)
[22] = molecular target: CHIKV E2-E1 envelope glycoproteins (strain S27), E2 mutant T65A (chikungunya virus strain S27) (UniProt Q8JUX5)
[23] = molecular target: CHIKV E2-E1 envelope glycoproteins (strain S27), E2 mutant L111A (chikungunya virus strain S27) (UniProt Q8JUX5)
[24] = molecular target: CHIKV E2-E1 envelope glycoproteins (strain S27), E2 mutant D60A (chikungunya virus strain S27) (UniProt Q8JUX5)
[25] = molecular target: CHIKV E2-E1 envelope glycoproteins (strain S27), E2 mutant S88A (chikungunya virus strain S27) (UniProt Q8JUX5)
[26] = molecular target: CHIKV E2-E1 envelope glycoproteins (strain S27), E2 mutant C105A (chikungunya virus strain S27) (UniProt Q8JUX5)
[27] = molecular target: CHIKV E2-E1 envelope glycoproteins (strain S27), E2 mutant N39A (chikungunya virus strain S27) (UniProt Q8JUX5)
[28] = molecular target: CHIKV E2-E1 envelope glycoproteins (strain S27), E2 mutant F115A (chikungunya virus strain S27) (UniProt Q8JUX5)
[29] = molecular target: CHIKV E2-E1 envelope glycoproteins (strain S27), E2 mutant V113A (chikungunya virus strain S27) (UniProt Q8JUX5)
[30] = molecular target: CHIKV E2-E1 envelope glycoproteins (strain S27), E2 mutant G79A (chikungunya virus strain S27) (UniProt Q8JUX5)
[31] = molecular target: CHIKV E2-E1 envelope glycoproteins (strain S27), E2 mutant D43A (chikungunya virus strain S27) (UniProt Q8JUX5)
[32] = molecular target: CHIKV E2-E1 envelope glycoproteins (strain S27), E2 mutant I74A (chikungunya virus strain S27) (UniProt Q8JUX5)
[33] = molecular target: CHIKV E2-E1 envelope glycoproteins (strain S27), E2 mutant E109A (chikungunya virus strain S27) (UniProt Q8JUX5)

Substance | Binding Reactivity (% WT) [1] | Binding Reactivity (% WT) [2] | Binding Reactivity (% WT) [3] | Binding Reactivity (% WT) [4] | Binding Reactivity (% WT) [5] | Binding Reactivity (% WT) [6] | Binding Reactivity (% WT) [7] | Binding Reactivity (% WT) [8] | Binding Reactivity (% WT) [10] | Binding Reactivity (% WT) [11] | Binding Reactivity (% WT) [12] | Binding Reactivity (% WT) [13] | Binding Reactivity (% WT) [15] | Binding Reactivity (% WT) [16] | Binding Reactivity (% WT) [17] | Binding Reactivity (% WT) [18] | Binding Reactivity (% WT) [19] | Binding Reactivity (% WT) [20] | Binding Reactivity (% WT) [21] | Binding Reactivity (% WT) [22] | further results
CHIKV mAb IM-CKV063 (antibody) | 44.1 % WT | 2.7 % WT | 60.7 % WT | 18.7 % WT | 111 % WT | 95.3 % WT | 98.9 % WT | 92.2 % WT | 44.2 % WT | 19.8 % WT | 100 % WT | 104 % WT | 62.1 % WT | 89.8 % WT | 58.4 % WT | 107 % WT | 65.8 % WT | 99.9 % WT | 0.5 % WT | 70.1 % WT | Binding Reactivity (% WT) [9]: 76.5 % WT; Binding Reactivity (% WT) [14]: 116 % WT; Binding Reactivity (% WT) [23]: 20.3 % WT; Binding Reactivity (% WT) [24]: 64.8 % WT; Binding Reactivity (% WT) [25]: 89.5 % WT; Binding Reactivity (% WT) [26]: 0.4 % WT; Binding Reactivity (% WT) [27]: 120 % WT; Binding Reactivity (% WT) [28]: 3.6 % WT; Binding Reactivity (% WT) [29]: 79.8 % WT; Binding Reactivity (% WT) [30]: 86.9 % WT; Binding Reactivity (% WT) [31]: 8.3 % WT; Binding Reactivity (% WT) [32]: 106 % WT; Binding Reactivity (% WT) [33]: 76.6 % WT
CHIKV mAb IM-CKV065 (antibody) | 33.3 % WT | -2.7 % WT | 46.3 % WT | 6.2 % WT | 113 % WT | 108 % WT | 102 % WT | 61.2 % WT | 30.8 % WT | 6.3 % WT | 112 % WT | 103 % WT | 54.1 % WT | 85.6 % WT | 35.2 % WT | 142 % WT | 46.8 % WT | 112 % WT | -2.9 % WT | 98.4 % WT | Binding Reactivity (% WT) [9]: 119 % WT; Binding Reactivity (% WT) [14]: 126 % WT; Binding Reactivity (% WT) [23]: 6.6 % WT; Binding Reactivity (% WT) [24]: 114 % WT; Binding Reactivity (% WT) [25]: 101 % WT; Binding Reactivity (% WT) [26]: -2.9 % WT; Binding Reactivity (% WT) [27]: 120 % WT; Binding Reactivity (% WT) [28]: -0.2 % WT; Binding Reactivity (% WT) [29]: 70.4 % WT; Binding Reactivity (% WT) [30]: 98.5 % WT; Binding Reactivity (% WT) [31]: 3.7 % WT; Binding Reactivity (% WT) [32]: 0.3 % WT; Binding Reactivity (% WT) [33]: 82.6 % WT
Mxra8-Fc (mouse Mxra8 extracellular domain fused to mouse IgG2b Fc) (Fc fusion) | 47.1 % WT | 4.8 % WT | 106 % WT | 17.3 % WT | 95.6 % WT | 114 % WT | -0.3 % WT | 83.7 % WT | 33.6 % WT | 23.7 % WT | 116 % WT | 31.2 % WT | 77.4 % WT | 99.2 % WT | 79.1 % WT | 86.8 % WT | 91.3 % WT | 102 % WT | -0.2 % WT | 68.9 % WT | Binding Reactivity (% WT) [23]: 25.7 % WT; Binding Reactivity (% WT) [24]: 102 % WT; Binding Reactivity (% WT) [25]: 94 % WT; Binding Reactivity (% WT) [26]: -0.1 % WT; Binding Reactivity (% WT) [27]: 91.9 % WT; Binding Reactivity (% WT) [29]: 78 % WT; Binding Reactivity (% WT) [30]: 94.6 % WT; Binding Reactivity (% WT) [31]: 36.2 % WT; Binding Reactivity (% WT) [32]: 44.8 % WT; Binding Reactivity (% WT) [33]: 97.4 % WT
